In the supplement of paper PMC10126150:
± gives the standard deviation of the averaged measurements.

Tested on: ATP
Test: switch fluorescence ratio, 500 uM ATP over buffer (Cy3 cluster intensity, sum of 5 cycles each) (fold (ratio)); higher = stronger signal-on switching upon ATP binding; sequences stand for … in TCGTCGGCAGCGTCAGATGTGTATAAGAGACAGTTTTTTTTTTTTTTTTTTTTTTTTT…TC
Conditions: aptamer strand: ATP DNA aptamer (quencher-CACCTGGGGGAGTATTGCGGAGGAAGG + anchor), 100 nM annealed; ATP concentration: 500 uM
Method in brief: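 Imaging in selection buffer was followed by imaging after 15 min with 500 uM ATP at 22 °C, for Cy3-labelled switching-strand clusters annealed to 100 nM quencher-labelled ATP aptamer on a modified Illumina MiSeq flow-cell. Five of these buffer/ATP cycles ran, separated by NaOH stripping and re-annealing. The fluorescence ratio per cluster is summed target-cycle over summed buffer-cycle Cy3 intensity, averaged per switch-domain sequence; clusters outside 100-1000 RFU were removed.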
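Note: ATP exposure 15 min at 22 °C before imaging.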

Sequence | switch fluorescence ratio
ACTGCCTTCA | 1.52 ± 0.12
ACTGCGGGAC | 1.51 ± 0.69
ACTGCGTGAT | 1.05 ± 0.022
ACTGCTGAAT | 0.99 ± 0.045
ACTGCTGTTT | 0.9834 ± 0.0026
ACTGGAAGTG | 1.03 ± 0.0039
ACTGGACTGT | 1.18 ± 0.026
ACTGGAGGTG | 1.067 ± 0.0038
ACTGGATCCA | 1.01 ± 0.013
ACTGGGCTGT | 1.06 ± 0.062
ACTGGGGGCG | 1.03 ± 0.053
ACTGGGGTCT | 1.01 ± 0.026
ACTGGGGTGT | 1.07 ± 0.0045
ACTGGGTAGA | 1.0278 ± 0.00073
ACTGGGTGAG | 1.02 ± 0.023
ACTGGGTTTT | 1.022 ± 0.0022
ACTGGTATAA | 0.989 ± 0.015
ACTGGTGGTG | 0.97817 ± 0.0005
ACTGGTGTTC | 1.019 ± 0.0094
ACTGTAATCC | 1.16 ± 0.046
ACTGTACACC | 1.46 ± 0.026
ACTGTACCGG | 1.45 ± 0.04
ACTGTGGACA | 1.02 ± 0.016
ACTGTGTACA | 0.9824 ± 0.0024
ACTGTGTTTG | 0.991 ± 0.036

Sequence | switch fluorescence ratio
ACTGTTCTCG | 1.01 ± 0.046
ACTGTTTTGA | 0.962 ± 0.01
ACTGTTTTTA | 0.9849 ± 0.004
ACTTAAGTTT | 1.01 ± 0.07
ACTTAATGGG | 1.034 ± 0.0014
ACTTACAGGG | 1.171 ± 0.0058
ACTTACTATC | 1.193 ± 0.0046
ACTTACTTT | 1.16 ± 0.021
ACTTAGCGGT | 1.07 ± 0.051
ACTTAGGAGA | 1.01 ± 0.048
ACTTAGGTTG | 1.04 ± 0.017
ACTTATATA | 1.02 ± 0.022
ACTTCAGCGG | 1.07 ± 0.015
ACTTCATTTT | 1.02 ± 0.012
ACTTGAGGGT | 1.05 ± 0.094
ACTTGATCGC | 1.03 ± 0.03
ACTTGGACAT | 1.04 ± 0.018
ACTTGGACGT | 1.05 ± 0.048
ACTTGGCACA | 1.08 ± 0.054
ACTTGGGATG | 0.982 ± 0.037
ACTTGGTACT | 1.02 ± 0.018
ACTTGGTTGT | 0.992 ± 0.013
ACTTGTTTCG | 0.961 ± 0.037
ACTTGTTTGG | 1.01 ± 0.023
ACTTTAGGGT | 1.15 ± 0.12

Sequence | switch fluorescence ratio
ACTTTAGTTA | 0.9756 ± 0.0025
ACTTTATTCT | 1.04 ± 0.02
ACTTTCTAGC | 1.07 ± 0.029
ACTTTGGGCG | 0.932 ± 0.059
ACTTTGGTTT | 0.993 ± 0.031
ACTTTGTACG | 1.06 ± 0.011
ACTTTGTATT | 0.999 ± 0.013
ACTTTTTCGG | 0.9909 ± 0.006
ACTTTTTGAG | 0.996 ± 0.032
ACTTTTTTGA | 1.005 ± 0.0056
ACTTTTTTTA | 1.022 ± 0.01
AGAAAAAATT | 1 ± 0.017
AGAAAAAGGA | 1.01 ± 0.044
AGAAAAGGGC | 1.026 ± 0.0014
AGAAAATAGT | 1.03 ± 0.032
AGAAAGCCGG | 0.989 ± 0.014
AGAAAGGATG | 1.01 ± 0.032
AGAAAGGGGG | 0.9954 ± 0.0038
AGAAAGTTTT | 0.993 ± 0.025
AGAAATGGGA | 0.987 ± 0.012
AGAAATGTTA | 1.024 ± 0.0063
AGAAATTTTT | 0.998 ± 0.016
AGAACCATCG | 1.05 ± 0.016
AGAACCTAGT | 0.996 ± 0.031
AGAACCTCTT | 1.06 ± 0.033

Sequence | switch fluorescence ratio
AGAACGAAGG | 0.962 ± 0.015
AGAACGGGGC | 1.02 ± 0.023
AGAACTAGGG | 0.974 ± 0.016
AGAAGAAATC | 1.016 ± 0.008
AGAAGAGGGG | 0.987 ± 0.044
AGAAGCAGG | 1.21 ± 0.26
AGAAGCGACA | 0.994 ± 0.032
AGAAGCTAGT | 0.983 ± 0.044
AGAAGGCTGC | 0.978 ± 0.0071
AGAAGGGACG | 0.973 ± 0.021
AGAAGGGATT | 1.03 ± 0.015
AGAAGTACGC | 1.17 ± 0.1
AGAAGTCGTG | 1.02 ± 0.012
AGAAGTGAGC | 0.978 ± 0.038
AGAAGTTGGA | 1 ± 0.05
AGAAGTTGGT | 1 ± 0.023
AGAAGTTTGG | 0.989 ± 0.012
AGAATAATAG | 1.02 ± 0.026
AGAATACGGA | 1.05 ± 0.018
AGAATAGAGT | 0.97 ± 0.038
AGAATAGGGG | 0.9762 ± 0.0083
AGAATAGGGT | 0.9901 ± 0.0072
AGAATAGTGG | 0.96 ± 0.037
AGAATCAGCA | 1.01 ± 0.019
AGAATCCTG | 0.995 ± 0.043

Sequence | switch fluorescence ratio
AGAATGAGGT | 0.98 ± 0.03
AGAATGGCAG | 0.991 ± 0.029
AGAATGTAAT | 0.9591 ± 0.0014
AGAATGTATG | 0.994 ± 0.021
AGAATGTTGC | 0.9482 ± 0.0035
AGAATTGAGA | 0.971 ± 0.019
AGAATTTTTG | 0.963 ± 0.075
AGACAACGGC | 1.02 ± 0.03
AGACAAGTGG | 0.957 ± 0.026
AGACACCCCT | 1.17 ± 0.073
AGACAGGAGA | 0.985 ± 0.019
AGACAGTTGG | 0.99 ± 0.025
AGACATGGGT | 1.02 ± 0.033
AGACCGCTTA | 1.15 ± 0.036
AGACGGAATT | 1.049 ± 0.0063
AGACGGGGCT | 0.975 ± 0.017
AGACGGTCGG | 0.975 ± 0.016
AGACGGTCTG | 0.973 ± 0.0098
AGACGTGCAG | 1.022 ± 0.006
AGACGTGCGT | 1.01 ± 0.048
AGACTCGGGT | 1.02 ± 0.0013
AGACTGAGTT | 0.984 ± 0.016
AGACTGCTGG | 0.977 ± 0.018
AGACTGGAGC | 1.06 ± 0.026
AGACTGTCGA | 1 ± 0.012

Sequence | switch fluorescence ratio
AGAGAAAGTA | 0.98799 ± 0.0004
AGAGAAGACC | 1 ± 0.028
AGAGACAGGG | 1.05 ± 0.032
AGAGACCAGC | 1.07 ± 0.028
AGAGACCTCA | 1.045 ± 0.0027
AGAGACGGGG | 1.02 ± 0.013
AGAGAGACAG | 0.97 ± 0.057
AGAGAGGGTT | 0.986 ± 0.019
AGAGATATTT | 0.992 ± 0.029
AGAGATGTTG | 0.993 ± 0.045
AGAGCAAGGT | 1.08 ± 0.035
AGAGCCTGGG | 1.04 ± 0.02
AGAGCGGTTC | 1.06 ± 0.11
AGAGCGTTCG | 0.998 ± 0.042
AGAGCTGGGG | 0.9849 ± 0.0079
AGAGGAGGGT | 1.01 ± 0.017
AGAGGGAACA | 1.01 ± 0.02
AGAGGGAGTA | 1 ± 0.022
AGAGGGATAG | 1.19 ± 0.37
AGAGGGCATG | 0.987 ± 0.026
AGAGGGCTTT | 0.988 ± 0.032
AGAGGGGAGT | 1.021 ± 0.0016
AGAGGGGATG | 1.02 ± 0.0081
AGAGGGGCCA | 1.01 ± 0.048
AGAGGGGTTT | 0.98 ± 0.03

Sequence | switch fluorescence ratio
AGAGGTAAGA | 0.9911 ± 0.0084
AGAGGTACAC | 1 ± 0.021
AGAGGTTACG | 0.994 ± 0.046
AGAGGTTAGG | 0.9874 ± 0.0033
AGAGGTTGGG | 0.98 ± 0.04
AGAGGTTTTT | 0.989 ± 0.019
AGAGTACTCG | 1.05 ± 0.0048
AGAGTACTGG | 1.01 ± 0.01
AGAGTATTGC | 1.04 ± 0.16
AGAGTCAGGC | 1.07 ± 0.044
AGAGTCATGG | 1 ± 0.013
AGAGTCTATC | 0.972 ± 0.044
AGAGTGACGA | 1.008 ± 0.0061
AGAGTGCTAC | 1.04 ± 0.027
AGAGTGGTAG | 0.99 ± 0.013
AGAGTGGTCA | 0.988 ± 0.018
AGAGTTGTGA | 1.02 ± 0.012
AGAGTTTTTT | 0.998 ± 0.018
AGATAAACTC | 1.03 ± 0.051
AGATATGTTG | 0.996 ± 0.012
AGATCAGGAT | 1.02 ± 0.012
AGATCCATTT | 0.991 ± 0.055
AGATCGCTTT | 1.02 ± 0.029
AGATCGTGAG | 0.97 ± 0.038
AGATCGTTTT | 0.999 ± 0.012

Sequence | switch fluorescence ratio
AGATCTATTG | 1.03 ± 0.033
AGATCTGCAT | 1.11 ± 0.019
AGATGACGGG | 0.975 ± 0.033
AGATGAGGGT | 1 ± 0.02
AGATGATGGG | 0.99 ± 0.017
AGATGCCTGA | 0.989 ± 0.035
AGATGGATTA | 1.025 ± 0.0024
AGATGGCATT | 1 ± 0.048
AGATGGGTAT | 0.986 ± 0.011
AGATGTACTA | 1.04 ± 0.043
AGATGTGTCT | 1.02 ± 0.003
AGATGTTCGG | 0.975 ± 0.025
AGATTAGGAC | 0.97145 ± 0.00024
AGATTATAGC | 1.02 ± 0.045
AGATTATGCA | 1.01 ± 0.048
AGATTCATCA | 0.9931 ± 0.0055
AGATTCATGT | 0.988 ± 0.018
AGATTCCGGT | 0.976 ± 0.016
AGATTCTGTT | 0.945 ± 0.022
AGATTGTACG | 1.006 ± 0.0017
AGATTGTATG | 1.01 ± 0.039
AGATTGTCTC | 0.9573 ± 0.0063
AGATTGTGGT | 0.99 ± 0.018
AGATTTATTT | 1.004 ± 0.0097
AGATTTGGCA | 0.988 ± 0.03
